# Reference: patent US20030087827A1
# Target: proprotein convertase PC2
# Experiment: enzyme inhibition, pERTKR-MCA hydrolysis (fluorescence), competitive Ki
# proprotein convertase PC2, sequence (P21661 109-637): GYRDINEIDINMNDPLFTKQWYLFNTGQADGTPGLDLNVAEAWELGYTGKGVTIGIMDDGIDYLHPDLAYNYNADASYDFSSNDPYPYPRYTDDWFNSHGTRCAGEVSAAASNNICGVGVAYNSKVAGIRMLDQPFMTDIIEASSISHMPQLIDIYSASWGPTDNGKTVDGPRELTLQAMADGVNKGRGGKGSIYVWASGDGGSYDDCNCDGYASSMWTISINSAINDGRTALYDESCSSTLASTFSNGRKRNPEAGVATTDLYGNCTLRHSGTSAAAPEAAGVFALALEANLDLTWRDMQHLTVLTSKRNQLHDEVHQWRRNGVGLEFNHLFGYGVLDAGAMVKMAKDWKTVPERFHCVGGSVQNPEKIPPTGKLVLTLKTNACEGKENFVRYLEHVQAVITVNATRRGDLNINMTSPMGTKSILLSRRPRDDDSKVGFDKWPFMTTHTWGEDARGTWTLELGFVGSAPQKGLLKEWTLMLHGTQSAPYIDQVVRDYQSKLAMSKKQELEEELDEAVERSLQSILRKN
substance,measurement,value
Ac-MRKRRR-NH2 (peptide),Ki,1500 µM
